Literature values as cited in PMC7465391, “1,4-Disubstituted 1,2,3-Triazoles as Amide Bond Surrogates for the Stabilisation of Linear Peptides with Biological Activity” (Molecules, 2020).
pKi: −log10 of the molar value.

Molecular target: delta opioid receptor (DOPr) (UniProt P41143)
Assay: radioligand

**Q.** With Leu-enkephalin as the substance, how does the pKi read?
**A.** 8.20
